Like-named read-outs stand apart in the source and are kept apart here.
Experiments:
[1] = biological target: T1, cynomolgus IL-17RA, on cells (cynomolgus); assay: FACS competition: non-clonal supernatant inhibiting biotin-huIL-17A (competitor) binding to cyno IL-17RA+ CHO cells
T1 construct: whole, on cells; also called CHO-cynoIL-17RA; cyno IL-17RA+ CHO cells

[2] = biological target: T2, huIL-17RA-FLAG-polyHis (human, UniProt Q96F46 33-320); assay: binning; IL-17RA held by bead mAb F
T2 construct: also called IL-17RA-FLAG-pHis; wild-type IL-17RA

[3] = biological target: T2, huIL-17RA-FLAG-polyHis; assay: binning; IL-17RA held by bead mAb H
[4] = biological target: T2, huIL-17RA-FLAG-polyHis; assay: binning; IL-17RA held by bead mAb E
[5] = biological target: T2, huIL-17RA-FLAG-polyHis; assay: binning; IL-17RA held by bead mAb Q
[6] = biological target: T2, huIL-17RA-FLAG-polyHis; assay: binning; IL-17RA held by bead mAb N
[7] = biological target: T2, huIL-17RA-FLAG-polyHis; assay: binning; IL-17RA held by bead mAb C
[8] = biological target: human IL-17RA (form used in the low resolution BIAcore not stated) (human, UniProt Q96F46 33-320, limits assumed); assay: low resolution BIAcore, subcloned hybridoma
[9] = biological target: T2, huIL-17RA-FLAG-polyHis; assay: binning; IL-17RA held by bead mAb J
[10] = biological target: T2, huIL-17RA-FLAG-polyHis; assay: binning; IL-17RA held by bead mAb L
[11] = biological target: T2, huIL-17RA-FLAG-polyHis; assay: binning; IL-17RA held by bead mAb K
[12] = biological target: T2, huIL-17RA-FLAG-polyHis; assay: binning; IL-17RA held by bead mAb P
[13] = biological target: T2, huIL-17RA-FLAG-polyHis; assay: binning; IL-17RA held by bead mAb I
[14] = biological target: T2, huIL-17RA-FLAG-polyHis; assay: binning; IL-17RA held by bead mAb A
[15] = biological target: T3, human IL-17RA, full-length, on cells (human, UniProt Q96F46 33-866); assay: cell-based or functional assay
[16] = biological target: T2, huIL-17RA-FLAG-polyHis; assay: binning; IL-17RA held by bead mAb O
[17] = biological target: T2, huIL-17RA-FLAG-polyHis; assay: binning; IL-17RA held by bead mAb G
[18] = biological target: T2, huIL-17RA-FLAG-polyHis; assay: binning; IL-17RA held by bead mAb B
[19] = biological target: T2, huIL-17RA-FLAG-polyHis; assay: binning; IL-17RA held by bead mAb M
[20] = biological target: T2, huIL-17RA-FLAG-polyHis; assay: binning; IL-17RA held by bead mAb R
[21] = biological target: T2, huIL-17RA-FLAG-polyHis; assay: binning; IL-17RA held by bead mAb D
[22] = biological target: T3, human IL-17RA, full-length, on cells; assay: cell-based or functional assay; remark: listed apart in the source
[23] = biological target: T4, chimera J; assay: Bio-Plex titration on His-captured chimera;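 note: binding of anti-IL-17RA antibodies (4-fold titration across about 5 logs, 1 h) to His-captured IL-17RA chimeras on multiplexed beads, MFI read as percent of maximal wild-type human IL-17RA signal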
T4 construct: human IL-17RA extracellular domain with mouse Domains D and E; column head D+E; also called Construct J

[24] = biological target: T5, chimera D; assay: Bio-Plex titration on His-captured chimera;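 note: binding of anti-IL-17RA antibodies (4-fold titration across about 5 logs, 1 h) to His-captured IL-17RA chimeras on multiplexed beads, MFI read as percent of maximal wild-type human IL-17RA signal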
T5 construct: human IL-17RA extracellular domain with mouse Domain D; column head 176-197; also called Construct D
T5 IL-17RA extracellular domain with FLAG-polyHis tag: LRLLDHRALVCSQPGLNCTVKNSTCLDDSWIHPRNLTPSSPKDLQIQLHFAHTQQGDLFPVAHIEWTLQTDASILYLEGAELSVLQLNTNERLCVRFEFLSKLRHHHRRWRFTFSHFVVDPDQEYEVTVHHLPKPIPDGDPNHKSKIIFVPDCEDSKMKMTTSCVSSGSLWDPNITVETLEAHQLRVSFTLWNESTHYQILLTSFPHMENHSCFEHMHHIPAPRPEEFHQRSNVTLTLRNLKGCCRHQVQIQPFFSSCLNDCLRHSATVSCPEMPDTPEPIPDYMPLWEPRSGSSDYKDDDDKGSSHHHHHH

[25] = biological target: T1, cynomolgus IL-17RA, on cells; assay: FACS competition: non-clonal supernatant inhibiting biotin-huIL-17A (competitor) binding to cyno IL-17RA+ CHO cells; remark: listed apart in the source
[26] = biological target: T1, cynomolgus IL-17RA, on cells; assay: cell-based or functional assay

Binder	MFI [1]	normalized MFI [2]	normalized MFI [3]	normalized MFI [4]	normalized MFI [5]	normalized MFI [6]	normalized MFI [7]	Kd [8] [nM]	normalized MFI [9]	normalized MFI [10]	normalized MFI [11]	normalized MFI [12]	normalized MFI [13]	normalized MFI [14]	normalized MFI [16]	normalized MFI [17]	normalized MFI [18]	% inhibition of IL-6 Production, IL-17A/HFF bioassay, non-clonal supernatant 1:4 [22] [%]	% inhibition of IL-6 Production, IL-17A/HFF bioassay, non-clonal supernatant 1:32 [22] [%]	% inhibition of IL-6 Production, IL-17A/HFF bioassay, non-clonal supernatant 1:128 [22] [%]	further results
AMH12/AML12 (antibody, IgG2, V domains shown, human mAb from IgG2 XenoMouse mice; also called AM-12; antibody M) VH: QVQLVQSGAEVKKPGASVKVSCKASGYTLTSYGISWVRQAPGQGLEWMGWISTYKGNTNYAQKLQGRVTMTTDTSTSTAYMELRSLRSDDTAVYYCARKQLVFDYWGQGTLVTVSS VL: EIVMTQSPATLSVSPGERATLSCRASQSISSSLAWYQQKPGQAPRLLIYGASTRATGIPARFSGSGSGTEFTLTISSLQSENFAVYYCQQYDNWPLTFGGGTKVEIK	6	1410	73	765	60	11	3040	8.2	31	18	-5	1900	26	1940	49	3280	455	75	82	61	IL-17A/HFF bioassay IC50, subclone 17 [15]: 3.5 nM; IL-17A/HFF bioassay IC50, subclone 18 [15]: 3.7 nM; IL-17A/HFF bioassay IC50, subclone 20 [15]: 5.5 nM; normalized MFI [19]: 20; normalized MFI [20]: 40; normalized MFI [21]: 888
AMH17/AML17 (antibody, V domains shown, human mAb from IgG2 XenoMouse mice; also called AM-17; antibody N) VH: QVQLVQSGAEVKKPGAAVKVSCKATGYTLTSYGISWVRQAPGQGLEWMGWISAYSGNTKYAQKLQGRVTMTTDTSTSTAYMELRSLRSDDTAVYYCARKQLVFDYWGQGTLVTVSS VL: not shown	8	1920	68	999	98	43	3980	8.2	8	-1	-44	2470	18	2470	55	4260	597	90	81	73	IL-17A/HFF bioassay IC50, subclone 21 [15]: 2.5 nM; IL-17A/HFF bioassay IC50, subclone 22 [15]: 5.3 nM; IL-17A/HFF bioassay IC50, subclone 23 [15]: 0.57 nM; normalized MFI [19]: 40; normalized MFI [20]: 76; normalized MFI [21]: 1200
AMH26/AML26 (antibody, IgG2, V domains shown, human mAb from IgG2 XenoMouse mice; also called AM-26; antibody P) VH: QVQLVESGGGLVKPGGSLRLSCAASGFTFSDYYMSWIRQAPGKGLEWVSYISSSGSTIYYADSVKGRFTISRDNAKNSLYLQMNSLRAEDTAVYYCARDRTYYFGSGSYEGMDVWGQGTTVTVSS VL: EILMTQSPATLSVSPGERATLSCRASQSVYSNLAWYQQKPGQAPRLLISGASTRATGIPARFSGSGSGTEFTLTISSLQSEDFAVYYCQQYYNWPWTFGQGTKVEIK																					EC50 [23]: 0.234 nM; EC50 [24]: 0.145 nM
AMH16/AML16 (antibody, IgG2, V domains shown, human mAb from IgG2 XenoMouse mice; also called AM-16; antibody O) VH: QVQLVQSGAEVKKPGASVKVSCKASGYTFTSYGISWVRQAPGQGLEWMGWISAYNGNTKYAQKLQGRVTMTTDTSTSTVYMELRSLRSDDTAVYYCARKQLVFDYWGQGTLVTVSS VL: EIVMTQSPATLSVSPGERATLSCRASQSISTSLAWYQQKPGQAPRLLIYGTSTRATGIPARFSGSGSGTEFTLTISSLQSEDFAVYFCQQYDIWPLTFGGGTKVEIK	6	2220	120	1260	135	83	4510	6.2	59	18	-111	2540	10	3000	139	4490	630	86	90	71	IL-17A/HFF bioassay IC50, subclone 24 [15]: 1.6 nM; IL-17A/HFF bioassay IC50, subclone 25 [15]: 2.3 nM; IL-17A/HFF bioassay IC50, subclone 26 [15]: 1.4 nM; normalized MFI [19]: 73; normalized MFI [20]: 76; normalized MFI [21]: 1370
AMH14/AML14 (antibody, V domains shown, human mAb from IgG2 XenoMouse mice; also called AM-14; antibody K) VH: QVQLVQSGAEVKKPGASVKVSCKASGYTFTRYGISWVRQAPGQGLEWMGWISTYSGNTNYAQKLQGRVTMTTDTSTSTAYMELRSLRSDDTAVYYCARRQLYFDYWGQGTLVTVSS VL: EIVMTQSPATLSVSPGERATLSCRASQSVSSNLAWFQQKPGQAPRPLIYDASTRATGVPARFSGSGSGTDFTLTISSLQSEDFAVYYCQQYDNWPLTFGGGTKVEIK																					MFI [25]: 10; cynomolgous IL-17A-induced IL-6 production from JTC-12 cells, IC50 [26]: ~1.2 nM
AMH13/AML13 (antibody, IgG2, V domains shown, human mAb from IgG2 XenoMouse mice; also called AM-13) VH: QVQLVESGGGVVQPGRSLRLSCAASGFTFSSYGMQWVRQAPGKGLEWVAVIWYDGNKKYYADSVKGRFTISRDNSKNTLYLQMNSLRAEDTAVYYCARGRVRDYYYGMDVWGQGTTVTVSS VL: DIVMTQTPLSLSVTPGQPASIACKSSQSLLHSDGKTYLYWYLQKPGQPPQLLIYEVSTRFSGVPDRFSGSGSGTDFTLKISRVEAEDVGVFYCMQSIQLPLTFGGGTKVEIK	6							7.6										73	78	75	IL-17A/HFF bioassay IC50, subclone 13 [15]: > 10 nM
AMH15/AML15 (antibody, IgG2, V domains shown, human mAb from IgG2 XenoMouse mice; tested only as part of a non-clonal hybridoma supernatant; also called AM-15) VH: QVQLVESGGGVVQPGRSLRLSCAASGFTFSSYGMQWVRQAPGKGLEWVAVIWYDGNKKYYADSVKGRFTISRDNSKNTLYLQMNSLRAEDTAVYYCARGRVRDYYYGMDVWGQGTTVTVSS VL: EIVMTQSPATLSVSPGERVTLSCRASQSVSSNLAWFQQKPGQAPRPLIYDASTRAAGIPARFSGSGSGTDFTLTISSLQSEDFAVYYCQQYDNWPLTFGGGTKVEIK																					MFI [25]: 6
